This passage reports percent inhibition of aggregation results from paper PMC2173041.

For the assay, the target named is Notch receptor (Drosophila) (UniProt P07207). The assay is described as follows: competitive cell aggregation assay.
Sequence of UniProt P07207 (P07207 53-2703): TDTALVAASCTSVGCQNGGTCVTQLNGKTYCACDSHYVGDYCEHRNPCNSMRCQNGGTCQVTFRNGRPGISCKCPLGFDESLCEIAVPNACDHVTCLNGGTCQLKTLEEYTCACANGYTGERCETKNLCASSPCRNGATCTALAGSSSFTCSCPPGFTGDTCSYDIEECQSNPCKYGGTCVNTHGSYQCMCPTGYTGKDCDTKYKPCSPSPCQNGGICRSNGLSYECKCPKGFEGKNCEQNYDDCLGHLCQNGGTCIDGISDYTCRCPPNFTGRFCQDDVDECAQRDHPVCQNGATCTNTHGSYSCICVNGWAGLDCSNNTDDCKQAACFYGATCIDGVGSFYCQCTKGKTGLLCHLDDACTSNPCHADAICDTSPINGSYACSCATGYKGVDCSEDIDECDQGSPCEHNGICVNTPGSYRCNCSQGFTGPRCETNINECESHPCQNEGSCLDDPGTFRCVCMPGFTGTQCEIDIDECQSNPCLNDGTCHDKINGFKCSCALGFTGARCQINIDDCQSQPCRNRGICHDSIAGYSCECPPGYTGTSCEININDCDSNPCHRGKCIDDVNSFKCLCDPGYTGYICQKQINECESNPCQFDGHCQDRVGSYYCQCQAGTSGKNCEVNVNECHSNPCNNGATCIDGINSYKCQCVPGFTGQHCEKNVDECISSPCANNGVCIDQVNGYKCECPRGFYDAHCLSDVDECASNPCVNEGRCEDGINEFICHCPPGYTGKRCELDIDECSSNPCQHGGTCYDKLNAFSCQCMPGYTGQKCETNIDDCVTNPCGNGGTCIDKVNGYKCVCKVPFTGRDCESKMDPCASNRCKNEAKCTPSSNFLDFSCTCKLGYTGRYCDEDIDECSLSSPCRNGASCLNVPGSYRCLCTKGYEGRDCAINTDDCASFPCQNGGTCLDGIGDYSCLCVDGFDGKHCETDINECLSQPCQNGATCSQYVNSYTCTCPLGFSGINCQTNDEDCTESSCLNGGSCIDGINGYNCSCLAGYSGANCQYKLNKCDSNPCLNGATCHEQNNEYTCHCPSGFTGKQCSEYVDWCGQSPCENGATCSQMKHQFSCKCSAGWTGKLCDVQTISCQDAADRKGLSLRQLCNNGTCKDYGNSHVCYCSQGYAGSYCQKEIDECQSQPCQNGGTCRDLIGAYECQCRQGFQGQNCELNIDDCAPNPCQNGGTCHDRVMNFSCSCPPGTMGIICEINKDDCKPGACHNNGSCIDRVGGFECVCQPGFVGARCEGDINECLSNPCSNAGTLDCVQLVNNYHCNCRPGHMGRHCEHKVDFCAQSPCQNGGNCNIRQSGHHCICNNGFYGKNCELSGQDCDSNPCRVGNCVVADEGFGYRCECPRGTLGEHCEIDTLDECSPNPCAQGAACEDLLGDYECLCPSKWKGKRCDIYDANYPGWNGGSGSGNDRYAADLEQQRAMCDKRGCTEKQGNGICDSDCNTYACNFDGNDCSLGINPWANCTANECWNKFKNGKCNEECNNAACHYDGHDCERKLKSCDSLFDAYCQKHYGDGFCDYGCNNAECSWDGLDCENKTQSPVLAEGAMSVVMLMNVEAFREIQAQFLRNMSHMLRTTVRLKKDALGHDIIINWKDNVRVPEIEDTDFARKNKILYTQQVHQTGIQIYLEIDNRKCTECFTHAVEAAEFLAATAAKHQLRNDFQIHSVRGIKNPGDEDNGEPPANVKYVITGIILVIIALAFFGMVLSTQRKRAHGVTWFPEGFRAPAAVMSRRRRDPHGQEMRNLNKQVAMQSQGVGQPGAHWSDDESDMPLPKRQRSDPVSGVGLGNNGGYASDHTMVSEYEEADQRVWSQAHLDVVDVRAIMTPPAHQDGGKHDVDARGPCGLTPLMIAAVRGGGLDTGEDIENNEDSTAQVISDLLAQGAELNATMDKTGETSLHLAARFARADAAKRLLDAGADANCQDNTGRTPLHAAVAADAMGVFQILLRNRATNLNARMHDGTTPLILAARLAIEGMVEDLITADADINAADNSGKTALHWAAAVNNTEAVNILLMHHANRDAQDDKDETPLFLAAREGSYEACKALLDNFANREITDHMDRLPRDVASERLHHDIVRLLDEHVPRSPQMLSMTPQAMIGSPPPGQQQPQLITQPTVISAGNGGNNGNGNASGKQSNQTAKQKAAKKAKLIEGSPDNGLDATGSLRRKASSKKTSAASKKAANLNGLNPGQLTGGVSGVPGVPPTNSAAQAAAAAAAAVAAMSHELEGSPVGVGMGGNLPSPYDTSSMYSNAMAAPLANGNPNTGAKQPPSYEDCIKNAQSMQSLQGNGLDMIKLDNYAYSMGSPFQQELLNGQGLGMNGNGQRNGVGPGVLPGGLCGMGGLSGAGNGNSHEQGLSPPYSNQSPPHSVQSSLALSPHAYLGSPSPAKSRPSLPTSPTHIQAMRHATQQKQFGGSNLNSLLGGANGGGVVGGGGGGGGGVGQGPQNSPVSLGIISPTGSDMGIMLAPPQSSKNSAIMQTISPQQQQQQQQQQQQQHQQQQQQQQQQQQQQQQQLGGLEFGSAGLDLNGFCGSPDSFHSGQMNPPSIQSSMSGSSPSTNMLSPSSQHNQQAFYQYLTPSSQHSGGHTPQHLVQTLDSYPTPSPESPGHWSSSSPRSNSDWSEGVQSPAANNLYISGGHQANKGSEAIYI

Consider “DlEC, extracellular fragment of Delta released by cleavage (from UniProt P10041 19-581) (domain or fragment)”, for which the percent inhibition of aggregation at >0.5 μM DlEC is < 20%.
